From article PMC7802198, “A novel humanized Frizzled-7-targeting antibody enhances antitumor effects of Bevacizumab against triple-negative breast cancer via blocking Wnt/β-catenin signaling pathway” (Journal of Experimental & Clinical Cancer Research : CR, 2021)

Columns and labels:
Test in all cases: BLI; Fortebio Octet Red96; SHH002-hu1 captured on Anti-Human Fab-CH1 2nd Generation Sensor; rhFzd1/2/5/7/8 in solution at different concentrations (rhFzd7: 6.25, 25, 100, 400 nmol/L); KB buffer (0.1% BSA + 0.05% Tween 20 in PBS, pH 7.2); KD from kd/ka
Settings in all cases: both partners purified
rhFzd7 = target: T1, rhFzd7 (Homo sapiens, UniProt O75084)
T1 construct: Frizzled-7, human, recombinant; the discussion says only that the recombinant human Fzd7 extracellular CRD protein was used to immunize mice; also called recombinant human Frizzled-7

rhFzd8 = target: T2, rhFzd8 (Homo sapiens, UniProt Q9H461)
T2 construct: Frizzled-8, human, recombinant

rhFzd5 = target: T3, rhFzd5 (Homo sapiens, UniProt Q13467)
T3 construct: Frizzled-5, human, recombinant

rhFzd2 = target: T4, rhFzd2 (Homo sapiens, UniProt Q14332)
T4 construct: Frizzled-2, human, recombinant

rhFzd1 = target: T5, rhFzd1 (Homo sapiens, UniProt Q9UP38)
T5 construct: Frizzled-1, human, recombinant
T5 sequence (Q9UP38 70-647): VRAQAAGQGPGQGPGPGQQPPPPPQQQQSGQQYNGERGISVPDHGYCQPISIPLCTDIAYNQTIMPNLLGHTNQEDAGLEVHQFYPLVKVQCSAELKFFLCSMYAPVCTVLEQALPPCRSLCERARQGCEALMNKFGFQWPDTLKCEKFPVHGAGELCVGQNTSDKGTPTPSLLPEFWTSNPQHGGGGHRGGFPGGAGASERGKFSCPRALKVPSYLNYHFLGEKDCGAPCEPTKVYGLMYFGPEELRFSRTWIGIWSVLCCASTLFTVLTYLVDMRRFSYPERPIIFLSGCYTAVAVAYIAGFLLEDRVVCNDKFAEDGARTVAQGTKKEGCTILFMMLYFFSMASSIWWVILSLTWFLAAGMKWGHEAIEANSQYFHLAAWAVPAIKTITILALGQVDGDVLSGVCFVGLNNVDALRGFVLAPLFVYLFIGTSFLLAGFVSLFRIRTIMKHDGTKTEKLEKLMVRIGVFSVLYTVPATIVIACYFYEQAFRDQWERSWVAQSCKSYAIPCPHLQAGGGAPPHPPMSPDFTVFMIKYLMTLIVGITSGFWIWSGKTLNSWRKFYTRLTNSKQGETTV

T4 sequence (Q14332 24-565): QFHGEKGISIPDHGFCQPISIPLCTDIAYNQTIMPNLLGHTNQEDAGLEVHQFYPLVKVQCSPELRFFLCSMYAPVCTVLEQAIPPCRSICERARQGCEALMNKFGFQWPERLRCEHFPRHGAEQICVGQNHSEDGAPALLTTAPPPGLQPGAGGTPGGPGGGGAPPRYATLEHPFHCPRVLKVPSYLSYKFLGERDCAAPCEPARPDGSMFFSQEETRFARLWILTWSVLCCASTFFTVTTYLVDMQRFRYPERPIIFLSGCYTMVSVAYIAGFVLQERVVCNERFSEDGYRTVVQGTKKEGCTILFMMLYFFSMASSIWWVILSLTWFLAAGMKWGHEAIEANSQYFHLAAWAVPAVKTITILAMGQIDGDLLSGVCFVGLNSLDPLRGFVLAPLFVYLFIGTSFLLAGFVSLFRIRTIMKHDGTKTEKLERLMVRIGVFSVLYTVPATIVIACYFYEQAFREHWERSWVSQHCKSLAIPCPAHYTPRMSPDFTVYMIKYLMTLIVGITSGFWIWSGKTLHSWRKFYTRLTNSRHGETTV
T3 sequence (Q13467 27-585): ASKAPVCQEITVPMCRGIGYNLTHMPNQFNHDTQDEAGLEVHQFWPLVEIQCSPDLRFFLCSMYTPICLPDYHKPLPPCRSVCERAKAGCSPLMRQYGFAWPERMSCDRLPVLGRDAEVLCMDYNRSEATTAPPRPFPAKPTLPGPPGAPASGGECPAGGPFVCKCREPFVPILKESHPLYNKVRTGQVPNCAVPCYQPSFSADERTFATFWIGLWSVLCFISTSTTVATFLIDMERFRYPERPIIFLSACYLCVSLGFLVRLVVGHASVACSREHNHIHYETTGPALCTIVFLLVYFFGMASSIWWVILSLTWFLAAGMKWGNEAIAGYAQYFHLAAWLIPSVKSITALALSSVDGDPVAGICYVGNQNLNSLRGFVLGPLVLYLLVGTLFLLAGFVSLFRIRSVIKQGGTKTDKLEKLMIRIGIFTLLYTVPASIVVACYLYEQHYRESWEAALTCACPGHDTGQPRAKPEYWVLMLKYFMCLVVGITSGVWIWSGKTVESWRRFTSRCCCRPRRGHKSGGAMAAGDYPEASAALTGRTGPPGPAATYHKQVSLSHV
T2 sequence (Q9H461 28-694): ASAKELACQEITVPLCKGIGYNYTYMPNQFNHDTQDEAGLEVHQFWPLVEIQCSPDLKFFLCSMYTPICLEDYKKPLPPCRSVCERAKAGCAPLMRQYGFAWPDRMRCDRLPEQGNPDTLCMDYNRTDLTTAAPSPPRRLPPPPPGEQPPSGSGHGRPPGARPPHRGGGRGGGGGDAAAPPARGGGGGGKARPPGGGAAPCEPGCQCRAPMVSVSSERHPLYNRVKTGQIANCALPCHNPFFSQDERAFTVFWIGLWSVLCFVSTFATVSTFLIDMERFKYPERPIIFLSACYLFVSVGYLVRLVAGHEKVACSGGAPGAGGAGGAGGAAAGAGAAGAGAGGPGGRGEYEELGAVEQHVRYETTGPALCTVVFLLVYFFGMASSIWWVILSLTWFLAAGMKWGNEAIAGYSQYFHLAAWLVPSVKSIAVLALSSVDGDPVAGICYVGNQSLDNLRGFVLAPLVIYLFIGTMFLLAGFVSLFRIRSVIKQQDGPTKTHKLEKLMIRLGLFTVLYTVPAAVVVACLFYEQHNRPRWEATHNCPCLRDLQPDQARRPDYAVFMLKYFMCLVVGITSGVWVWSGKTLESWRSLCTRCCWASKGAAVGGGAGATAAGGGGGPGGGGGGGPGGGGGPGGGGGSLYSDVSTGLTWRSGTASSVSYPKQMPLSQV

B1: SHH002-hu1 (antibody, V domains shown)
VH: QVQLVQSGAEVKKPGASVKMSCKASGYTFTTYTMHWVRQAPGQGLEWIGYINPRSGYTNYNQKFQGRATVTADKSTSTAYMELSSLRSEDTAVYYCARRGYFDYWGQGTTVTVSS
VL: DIQLTQSPSSLSVSVGDRATITCRASESVDDYGNTFMHWYQQKPGKAPKLLIYLASNLQSGVPSRFSGSGSRTDFTLTISSVQAEDAATYYCQQNNEDPYTFGQGTKLEIK
notes: Whole antibody of 150 kDa (HC 50 kDa, LC 25 kDa); humanization degree 98%; detected with anti-human IgG H&L; also called humanized antibody targeting Fzd7; humanized anti-Fzd7 antibody
- Kd (rhFzd7): < 1 pM
- koff (rhFzd7): < 1e-07 s⁻¹
- kon (rhFzd7): 400000 M⁻¹ s⁻¹
- binding result (rhFzd8): no binding
- binding result (rhFzd5): no binding
- binding result (rhFzd2): no binding
- binding result (rhFzd1): no binding
